This is an account of results in patent publication EP4491631A1.

The labels stand for the following.
B1: z2-XVT458 (antibody, IgG1, V domains shown)
VH: QVQLVQSGAEVKKPGASVKVSCKASGYTFTNFYIHWVRQAPGQGLEWMGSIYPNYGDTAYNQKFKDRVTMTVDTSTSTAYMELRSLRSDDTAVYYCARGYSYAMDYWGQGTTVTVSS
VL: DIQMTQSPSSVSASVGDRVTITCSASQGISGDLNWYQQKPGKAPKLLIYHTSSLHSGVPSRFSGSGSGTDFTLTISSLQPEDFATYYCQYYSKDLLTFGGGTKLEIK
B2: XVT458-z2-m5 (antibody, V domains shown)
VH: QVQLVQSGAEVKKPGASVKVSCKASGYTFTNFYIHWVRQAPGQGLEWMGRIYPNYGITAYNQKFKDRVTMTVDTSTSTAYMELRSLRSDDTAVYYCARGYSYAMDYWGQGTTVTVSS
VL: DIQMTQSPSSVSASVGDRVTITCSASQGIYGDLNWYQQKPGKAPKLLIYHTSSRHSGVPSRFSGSGSGTDFTLTISSLQPEDFATYYCQAYSKDLLTFGGGTKLEIK
B3: XVT458-z2-m4 (antibody, V domains shown)
VH: QVQLVQSGAEVKKPGASVKVSCKASGYTFTNFYIHWVRQAPGQGLEWMGRIYPNYGITAYNQKFKDRVTMTVDTSTSTAYMELRSLRSDDTAVYYCARGYSYAMDYWGQGTTVTVSS
VL: DIQMTQSPSSVSASVGDRVTITCSASQGISGDLNWYQQKPGKAPKLLIYHTSSRHSGVPSRFSGSGSGTDFTLTISSLQPEDFATYYCQGYSKDLLTFGGGTKLEIK
B4: XVT458-z2-m1 (antibody, V domains shown)
VH: QVQLVQSGAEVKKPGASVKVSCKASGYTFTNFYIHWVRQAPGQGLEWMGSIYPNYGFTAYNQKFKDRVTMTVDTSTSTAYMELRSLRSDDTAVYYCARGYSYAMDYWGQGTTVTVSS
VL: DIQMTQSPSSVSASVGDRVTITCSASQGIWGDLNWYQQKPGKAPKLLIYHTSQLHSDVPSRFSGSGSGTDFTLTISSLQPEDFATYYCQGYSKDLLTFGGGTKLEIK
B5: XVT458-z2-m2 (antibody, V domains shown)
VH: QVQLVQSGAEVKKPGASVKVSCKASGYTFTNFYIHWVRQAPGQGLEWMGRIYPNYGFTAYNQKFKDRVTMTVDTSTSTAYMELRSLRSDDTAVYYCARGYSYAMDYWGQGTTVTVSS
VL: DIQMTQSPSSVSASVGDRVTITCSASQGIYGDLNWYQQKPGKAPKLLIYHTSSLHSGVPSRFSGSGSGTDFTLTISSLQPEDFATYYCQAYSKDLLTFGGGTKLEIK
B6: XVT458-z2-m3 (antibody, V domains shown)
VH: QVQLVQSGAEVKKPGASVKVSCKASGYTFTNFYIHWVRQAPGQGLEWMGRIYPNYGITAYNQKFKDRVTMTVDTSTSTAYMELRSLRSDDTAVYYCARGYSYAMDYWGQGTTVTVSS
VL: DIQMTQSPSSVSASVGDRVTITCSASQGISGDLNWYQQKPGKAPKLLIYHTSQRHSDVPSRFSGSGSGTDFTLTISSLQPEDFATYYCQGYSKDLLTFGGGTKLEIK
B7: XVT458-z2-m6 (antibody, V domains shown)
VH: QVQLVQSGAEVKKPGASVKVSCKASGYTFTNFYIHWVRQAPGQGLEWMGSIYPNYGITAYNQKFKDRVTMTVDTSTSTAYMELRSLRSDDTAVYYCARGYSYAMDYWGQGTTVTVSS
VL: DIQMTQSPSSVSASVGDRVTITCSASQGISGDLNWYQQKPGKAPKLLIYHTSQLHSDVPSRFSGSGSGTDFTLTISSLQPEDFATYYCQGYSKDLLTFGGGTKLEIK

Chain of cynomolgus PD-1 expressed on cells (cynomolgus monkey) (B0LAJ3 entry or part of it limits assumed): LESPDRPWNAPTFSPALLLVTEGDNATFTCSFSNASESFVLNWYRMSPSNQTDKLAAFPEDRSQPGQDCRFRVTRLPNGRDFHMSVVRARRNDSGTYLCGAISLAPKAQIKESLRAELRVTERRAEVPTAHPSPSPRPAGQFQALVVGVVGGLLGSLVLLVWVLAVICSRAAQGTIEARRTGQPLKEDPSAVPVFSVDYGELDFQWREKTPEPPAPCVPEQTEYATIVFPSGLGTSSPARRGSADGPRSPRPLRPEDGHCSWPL

The experiment addresses cynomolgus PD-1 expressed on cells (cynomolgus monkey) (UniProt B0LAJ3). As to the kind of experiment: flow cytometry, CHO-S Cyno-PD-1.
Molecule B1 gave a Max MFI of 109 MFI.
Molecule B2 gave a Max MFI of 335 MFI.
The value for B3 was 258 MFI; that for B4 was 70 MFI; that for B5 was 367 MFI.
In the case of B6, the Max MFI was determined as 124 MFI.
With B7, the Max MFI came to 59 MFI.
